Key:
ubiquitin (D77) [1] = biological target: T1, ubiquitin (D77) (UniProt P0CG48 1-76, D77); assay: ITC
ubiquitin (D77) [2] = biological target: T1, ubiquitin (D77); assay: ITC; remark: listed apart in the source
ubiquitin (D77) [3] = biological target: T1, ubiquitin (D77); assay: NMR titration

B1: gp78CUE domain (453–504) (domain or fragment, human, UniProt Q9UKV5 453-504, looked up)
chain: SNSQLNAMAHQIQEMFPQVPYHLVLQDLQLTRSVEITTDNILEGRIQVPFPT
Q: With B1 as the binder, how does the Kd (ubiquitin (D77) [1]) read?
A: The Kd was 12.8 ± 0.7 µM.

Q: What about the dH (ubiquitin (D77) [2]) of the same binder?
A: Its dH is -3.418 ± 0.0239 kcal/mol.

Q: What about the “stoichiometry N” value (ubiquitin (D77) [2]) of the same binder?
A: Its value is 0.91.

Q: What about the Kd (ubiquitin (D77) [3]) of the same binder?
A: Its Kd is 13.6 ± 12 µM.

Source: article PMC3518592 (Structure (London, England : 1993), 2012)
